This passage reports fold increase in Kd against non-phosphorylated GMΔNT results from article PMC3897551.

This test concerns the target tubulin dimers. In words: MST.

Chain of tubulin dimers (P68363 whole entry, chain 1 of 2): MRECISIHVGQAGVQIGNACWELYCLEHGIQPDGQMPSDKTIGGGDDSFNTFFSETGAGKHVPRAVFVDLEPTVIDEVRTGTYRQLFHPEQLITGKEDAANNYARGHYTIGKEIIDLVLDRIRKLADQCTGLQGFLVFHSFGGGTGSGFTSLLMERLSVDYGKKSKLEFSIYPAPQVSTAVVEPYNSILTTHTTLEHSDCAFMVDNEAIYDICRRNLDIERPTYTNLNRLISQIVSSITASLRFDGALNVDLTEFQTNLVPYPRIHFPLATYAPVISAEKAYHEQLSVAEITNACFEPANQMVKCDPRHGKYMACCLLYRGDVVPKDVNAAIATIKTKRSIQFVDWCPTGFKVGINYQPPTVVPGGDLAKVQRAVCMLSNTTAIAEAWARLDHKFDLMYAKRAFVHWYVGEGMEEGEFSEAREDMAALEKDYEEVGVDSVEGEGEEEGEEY
Chain of tubulin dimers (A8K068 whole entry, chain 2 of 2, further chain): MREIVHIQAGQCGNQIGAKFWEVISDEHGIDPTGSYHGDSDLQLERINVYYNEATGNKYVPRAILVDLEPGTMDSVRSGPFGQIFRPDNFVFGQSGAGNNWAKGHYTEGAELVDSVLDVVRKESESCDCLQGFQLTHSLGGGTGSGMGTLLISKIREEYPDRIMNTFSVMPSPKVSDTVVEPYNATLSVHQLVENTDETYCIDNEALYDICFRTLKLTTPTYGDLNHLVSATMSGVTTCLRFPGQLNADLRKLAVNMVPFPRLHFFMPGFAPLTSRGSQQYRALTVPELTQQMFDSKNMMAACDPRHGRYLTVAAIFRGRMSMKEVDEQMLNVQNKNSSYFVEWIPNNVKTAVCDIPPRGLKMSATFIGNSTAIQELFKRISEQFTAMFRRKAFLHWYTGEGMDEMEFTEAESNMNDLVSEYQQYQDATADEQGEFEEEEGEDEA

B1: GMΔNT phosphorylated by Aurora B/INCENP, Q91636 187-730 (domain or fragment)
chain: GRNNQGRRKSNIVKEMEKMKNKREEQRAQNYERRMKRAQDYDTSVPNWEFGKMIKEFRATMDCHRISMADPAEEHRICVCVRKRPLNKQELSKKEIDIISVPSKNIVLVHEPKLKVDLTKYLENQAFRFDFSFDETATNEVVYRFTARPLVQSIFEGGKATCFAYGQTGSGKTHTMGGDFSGKSQNVSKGVYAFASRDVFLLLDQPRYKHLDLDVFVTFFEIYNGKVFDLLNKKTKLRVLEDAKQEVQVVGLLEKQVISADDVFKMIEIGSACRTSGQTFANTSSSRSHACLQIILRRGSKLHGKFSLVDLAGNERGVDTASADRITRMEGAEINRSLLALKECIRALGQNKSHTPFRESKLTQILRDSFIGENSRTCMIAMLSPGFNSCEYTLNTLRYADRVKELSPQNAETNDDNLQMEDSGGSHASIEGLQLQDDFLLKDEELSTHNSFQDALNRVGELEDKAVDELRELVQKEPEWTNLLQMTEQPDYDLENFVMQAEYLIQERSKVLIALGDSINSLRLALQVEEQASKQISKKKRSNK
modifications: here or on the partner: phosphorylated by Aurora B/INCENP (S196 is retained in this region)
As for B1, the fold increase in Kd against non-phosphorylated GMΔNT amounted to 16 fold.
